According to patent publication US20210147812A1, “Method of Preparing Cancer Spheroid and Method of Selecting Colorectal Cancer Patient” (Kyo Diagnostics K.K., priority 2017, published 2021):

Test system: CRC-TIC spheroid lines that carried wild-type RAS/RAF genes (HC6T, HC9T, HC11T, HC21T)
Test: Stimulation of spheroid growth with EGF and/or bFGF, luminescence-based growth monitoring (GEI)
Format: cell-based, human
Conditions: HC11T
Experimental: Luminescence was determined daily or 3 days later. The cell growth rate for each well was estimated as the proportion of photon counts to those on day 1. Four or six replicates (with similar statistical power) were analyzed for each data point in all experiments except for the chemical compound screening assays.
To investigate whether EGF and bFGF helped spheroid proliferation in the cancer medium as described above, we cultured with EGF and/or bFGF four slow-growing CRC-TIC spheroid lines that carried wild-type RAS/RAF genes (HC6T, HC9T, HC11T, HC21T). Because EGF/bFGF facilitated the growths of these spheroid lines substantially (FIG. 3A), we then quantified their effects by the luminescence-based growth monitoring. To calibrate the effects, we introduced the growth effect index (GEI) defined as the relative growth rate of a treated group to that of its solvent-only control in each paired assay. […] The extents of growth promotion by EGF and bFGF were different depending on the spheroid line. […] In another spheroid line (HC21T), the effects were similar between the two growth factors (FIG. 3B).

B1: EGF: epidermal growth factor, recombinant human protein (protein, UniProt P01133 23-1207, looked up)
Pro-epidermal growth factor: PQHWSCPEGTLAGNGNSTCVGPAPFLIFSHGNSIFRIDTEGTNYEQLVVDAGVSVIMDFHYNEKRIYWVDLERQLLQRVFLNGSRQERVCNIEKNVSGMAINWINEEVIWSNQQEGIITVTDMKGNNSHILLSALKYPANVAVDPVERFIFWSSEVAGSLYRADLDGVGVKALLETSEKITAVSLDVLDKRLFWIQYNREGSNSLICSCDYDGGSVHISKHPTQHNLFAMSLFGDRIFYSTWKMKTIWIANKHTGKDMVRINLHSSFVPLGELKVVHPLAQPKAEDDTWEPEQKLCKLRKGNCSSTVCGQDLQSHLCMCAEGYALSRDRKYCEDVNECAFWNHGCTLGCKNTPGSYYCTCPVGFVLLPDGKRCHQLVSCPRNVSECSHDCVLTSEGPLCFCPEGSVLERDGKTCSGCSSPDNGGCSQLCVPLSPVSWECDCFPGYDLQLDEKSCAASGPQPFLLFANSQDIRHMHFDGTDYGTLLSQQMGMVYALDHDPVENKIYFAHTALKWIERANMDGSQRERLIEEGVDVPEGLAVDWIGRRFYWTDRGKSLIGRSDLNGKRSKIITKENISQPRGIAVHPMAKRLFWTDTGINPRIESSSLQGLGRLVIASSDLIWPSGITIDFLTDKLYWCDAKQSVIEMANLDGSKRRRLTQNDVGHPFAVAVFEDYVWFSDWAMPSVMRVNKRTGKDRVRLQGSMLKPSSLVVVHPLAKPGADPCLYQNGGCEHICKKRLGTAWCSCREGFMKASDGKTCLALDGHQLLAGGEVDLKNQVTPLDILSKTRVSEDNITESQHMLVAEIMVSDQDDCAPVGCSMYARCISEGEDATCQCLKGFAGDGKLCSDIDECEMGVPVCPPASSKCINTEGGYVCRCSEGYQGDGIHCLDIDECQLGEHSCGENASCTNTEGGYTCMCAGRLSEPGLICPDSTPPPHLREDDHHYSVRNSDSECPLSHDGYCLHDGVCMYIEALDKYACNCVVGYIGERCQYRDLKWWELRHAGHGQQQKVIVVAVCVVVLVMLLLLSLWGAHYYRTQKLLSKNPKNPYEESSRDVRSRRPADTEDGMSSCPQPWFVVIKEHQDLKNGGQPVAGEDGQAADGSMQPTSWRQEPQLCGMGTEQGCWIPVSSDKGSCPQVMERSFHMPSYGTQTLEGGVEKPHSLLSANPLWQQRALDPPHQMELTQ
modifications: Pro-epidermal growth factor
notes: epidermal growth factor, recombinant human protein
In the case of B1, the “extent of growth promotion, bFGF versus EGF” value is reported as “vice versa”.
